Drawing on paper PMC7749410, this text covers stoichiometry N for 18 substances.

For experiment [1], the target named is cc-del0 (cc-C99 18-99) (Saccharomyces cerevisiae | human). The experiment can be described thus: native gel or EMSA.
Experiment [2] addresses cc-del0 G29C (Saccharomyces cerevisiae | human). The experiment can be described thus: cross-linking.
The target of experiment [3] is cc-del1 (cc-C99 19-99) (Saccharomyces cerevisiae | human). The experiment can be described thus: native gel or EMSA. A general note: Mobility shift assays separate free from complexed probe on a gel.
For experiment [4], the target named is cc-del2 (cc-C99 20-99) (Saccharomyces cerevisiae | human). The experiment can be described thus: native gel or EMSA.
Experiment [5] has as its target cc-del2 G29C (Saccharomyces cerevisiae | human). Description: cross-linking.
The target of experiment [6] is cc-del3 (cc-C99 21-99) (Saccharomyces cerevisiae | human). The experiment can be described thus: native gel or EMSA.
Experiment [7] has as its target cc-del3 G29C (Saccharomyces cerevisiae | human). Description: cross-linking.
For experiment [8], the target named is cc-del4 (cc-C99 22-99) (Saccharomyces cerevisiae | human). Description: native gel or EMSA.
Experiment [9] concerns the target cc-del4 G37C (Saccharomyces cerevisiae | human). The experiment can be described thus: cross-linking.
Experiment [10] deals with cc-del5 (cc-C99 23-99) (Saccharomyces cerevisiae | human). Description: native gel or EMSA.
The target in experiment [11] is cc-del6 (cc-C99 24-99) (Saccharomyces cerevisiae | human). The experiment can be described thus: native gel or EMSA.
Experiment [12] deals with cc-del6 G29C (Saccharomyces cerevisiae | human). The experiment can be described thus: cross-linking.
The target of experiment [13] is cc-del7 (cc-C99 25-99) (Saccharomyces cerevisiae | human). The experiment can be described thus: native gel or EMSA.
Experiment [14] addresses cc-del7 G29C (Saccharomyces cerevisiae | human). The experiment can be described thus: cross-linking.
Experiment [15] addresses cc-del7 G37C (Saccharomyces cerevisiae | human). Description: cross-linking.
Experiment [16] concerns the target cc-del8 (cc-C99 26-99) (Saccharomyces cerevisiae | human). The experiment can be described thus: native gel or EMSA.
Experiment [17] concerns the target cc-del9 (cc-C99 27-99) (Saccharomyces cerevisiae | human). Description: native gel or EMSA.
In experiment [18] the target is cc-del9 G29C (Saccharomyces cerevisiae | human). Description: cross-linking.

As a reminder, the stoichiometry N is a count of units in the complex or per binding partner. For the substance cc-del0 (cc-C99 18-99), the stoichiometry N in [1] was determined as 2.
In the case of cc-del0 G29C, the stoichiometry N in experiment [2] stood at 2.
cc-del1 (cc-C99 19-99) yielded a stoichiometry N in [3] of 2.
Regarding cc-del2 (cc-C99 20-99), the stoichiometry N in experiment [4] was 2.
As for cc-del2 G29C, the stoichiometry N in [5] came out at 2.
cc-del3 (cc-C99 21-99) displayed a stoichiometry N in experiment [6] of 2.
In [7], cc-del3 G29C registered a stoichiometry N of 2.
For the substance cc-del4 (cc-C99 22-99), in experiment [8], the stoichiometry N was found to be 2.
In experiment [9], cc-del4 G37C displayed a stoichiometry N of 2.
Take cc-del5 (cc-C99 23-99): in experiment [10], the stoichiometry N is 2.
The substance cc-del6 (cc-C99 24-99) had a stoichiometry N in experiment [11] of 2.
For cc-del6 G29C, the stoichiometry N in experiment [12] was found to be 2.
In experiment [13], cc-del7 (cc-C99 25-99) yielded a stoichiometry N of 2.
In experiment [14], cc-del7 G29C displayed a stoichiometry N of 2.
cc-del7 G37C returned a stoichiometry N in experiment [15] of 2.
As to cc-del8 (cc-C99 26-99), the stoichiometry N in [16] is 2.
For cc-del9 (cc-C99 27-99), the stoichiometry N in experiment [17] was 2.
cc-del9 G29C: the stoichiometry N in experiment [18] is 2.
